{"source": "patent US9249224B2", "about": "(RINAT NEUROSCIENCE CORP., priority 2011, dated 2016)", "molecules": {"B1": {"name": "SS3: humanized GHR antagonist antibody; VL SEQ ID NO: 9, VH SEQ ID NO: 10 (antibody, V domains shown)", "VH": "EVQLVESGGGLVKPGGSLRLSCAASGFTFSDAWMDWVRQAPGKGLEWVAEIRSKANNHATYYAESVKGRFTISRDDSKNTLYLQMNSLKTEDTAVYYCTLFRDYWGQGTLVTVSS", "VL": "EIVLTQSPGTLSLSPGERATLSCTATSSVSSSYLNWYQQKPGQAPRLLIYSTSNLASGIPDRFSGSGSGTDFTLTISRLEPEDFAVYYCHQYHRFTPTFGGGTKVEIK", "modifications": "Humanized and/or affinity matured antibody sequence"}}, "key": {"[1]": {"tested_on": "CT26 tumors", "experiment": "CT26 syngeneic mouse model of colorectal cancer, tumor volume and weight", "type": "in vivo", "conditions": "day 28, BALB/c mice bearing CT26 tumors, Ab11 10 mg/kg, irinotecan 100 mg/kg IP, hydrochloride", "protocol": "The CT26 cell line was used as a syngeneic mouse model of colorectal cancer. Mice were injected with tumor cells and dosed with the Ab11 antibody alone or in combination with iriniotecan.\nBALB/c mice (BALB/cAnNCrl) were obtained from Charles River (Hollister, Calif., USA) and maintained in the animal facility at Rinat. […] The mice were housed in microisolators (filter top cages) under pathogen-free conditions with a 12-h light/12-h dark schedule and fed autoclaved standard chow and water throughout the experiment.\nCells were harvested by brief incubation with Accutase (A6964-100ML) (Sigma™ Aldrich, Inc., St. Louis, Mo., USA) and washed in new medium for counting. […]\nMice were dose intraperitoneally (IP) every second to third day. Tumor volume and body weight were measured at least twice a week. […]\nThe tumors were measured every 2-4 days with a digital caliper (mm). Baseline tumor volumes were calculated using the following formula: V=d2^2×(d½) where d1 was the longest diameter of the tumor and d2 was the perpendicular to d1. At the end of the study, while the study was still blinded, outliers were determined and excluded from all four groups. Tumors that were 3× standard error of the mean < mean and 3× standard error of the mean > mean on all days after day 14 (days 18, 22, 25, and 28) were determined outliers. Tumor weight at the end of the study was also measured."}, "[2]": {"tested_on": "cyno GHR", "sequence (as listed by the source)": "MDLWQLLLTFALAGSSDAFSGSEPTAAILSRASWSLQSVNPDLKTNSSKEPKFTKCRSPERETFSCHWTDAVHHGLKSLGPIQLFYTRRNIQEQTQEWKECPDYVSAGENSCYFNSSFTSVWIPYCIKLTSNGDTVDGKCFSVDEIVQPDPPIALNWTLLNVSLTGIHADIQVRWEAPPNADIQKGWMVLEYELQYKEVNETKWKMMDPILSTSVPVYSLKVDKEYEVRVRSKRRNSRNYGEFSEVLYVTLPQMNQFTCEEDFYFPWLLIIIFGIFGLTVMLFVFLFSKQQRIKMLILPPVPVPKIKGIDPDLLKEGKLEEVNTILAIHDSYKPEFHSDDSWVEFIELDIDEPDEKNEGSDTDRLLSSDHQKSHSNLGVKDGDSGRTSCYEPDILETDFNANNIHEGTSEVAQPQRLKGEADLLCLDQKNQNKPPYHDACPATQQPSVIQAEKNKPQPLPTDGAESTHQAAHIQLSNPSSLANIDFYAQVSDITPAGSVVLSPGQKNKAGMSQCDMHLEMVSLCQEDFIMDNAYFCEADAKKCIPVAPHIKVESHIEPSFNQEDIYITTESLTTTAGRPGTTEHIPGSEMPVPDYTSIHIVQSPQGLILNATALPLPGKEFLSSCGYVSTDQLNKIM", "experiment": "STAT5 phosphorylation in vitro assay, cyno GHR-transfected HEK293 cells", "type": "cell-based, cynomolgus monkey", "conditions": "for fluorescent signal ave (phospho-STAT5): Table 8, cyno GHR-transfected cells", "method": "This Example illustrates the effect of GHR antibodies in an in vitro STAT5 phosphorylation assay. In this Example, the ability of GHR antibodies to block GHR downstream signaling was tested in vitro using human GHR overexpressing cells and cyno GHR overexpressing cells.\nGHR antagonist antibody Ab13 was tested for its ability to block STAT5 in an in vitro assay. HEK293 cells were transiently transfected with either DNA encoding full-length human GHR (SEQ ID NO: 140) or DNA encoding full-length cyno GHR (SEQ ID NO: 141). Cells were cultured in freestyle media for approximately 60 hours before testing. Cells were washed with DPBS (Dulbecco's Phosphate-Buffered Saline) and resuspended in Freestyle media, then counted using a hemocytometer. 1×10^6 cells were seeded per well in 6-well plates in 2 mls of Freestyle media. Cells were incubated for 2 hours at 37° C., then treated with 5, 50, or 500 nM Ab13 antibody in media. Cells were incubated at 37° C. with gentle mixing for 5 min with antibodies. 4.5 nM GH (Genotropin) was then added to all but control wells. Cells were incubated with GH at 37° C. with gentle mixing for 10 minutes.\nFollowing incubation with GH, 2 ml of ice cold DPBS with 1× protease inhibitor cocktail (Roche) and 1 mM sodium orthovanadate (BioLabs) were added to each well and the plates were placed on ice. Cells were transferred to 5 ml tubes and spun down to create a cell pellet and the wash buffer was aspirated, leaving the cell pellet.\nReagents from Millipore™ MILLIPLEX® MAP Cell Signaling Buffer and Detection Kit (cat. #48-602) were used to lyse and treat the cell pellets. Millipore lysis buffer with 1× protease inhibitor cocktail and 1 mM sodium orthovanadate was added to each pellet at a volume of 200 ul/pellet. Cells were vortexed and incubated for 15 minutes at room temp with occasional vortexing. Millipore Assay buffer 2 with 1× protease inhibitor cocktail and 1 mM sodium orthovanadate was then added to the lysates at 300 ul/well.\nMillipore™ MILLIPLEX® MAP Phospho STAT5N8 (Tyr694/699) MAPmate™ beads (Cat. #46-641) were resuspended in Assay Buffer 2 (from Millipore™ kit cat. #48-602) and loaded on a 96-well filter plate (provided in kit) at 25 ul/well, 25 ul/well of sample lysate was added to the wells and the beads and samples were incubated overnight at 4′C with shaking in the dark.\nThe liquid was then aspirated using a vacuum manifold and the remaining beads were washed using Millipore™ kit wash buffer. 25 ul Millipore™ kit detection antibody was added and incubated for 1 hour at room temperature with shaking in the dark. The detection antibody was vacuumed through and 25 ul kit streptavidin—Phycoerythrin was added and incubated in the dark for 15 min with shaking. 25 ul kit amplification buffer was then added and incubated for 15 min with shaking in the dark. The liquid was aspirated using a vacuum manifold, and the beads were resuspended in 150 ul kit assay buffer 2 and mixed on a shaker for 5 minutes before reading the plate.\nThe plate was read using a Luminex™ 200 instrument and fluorescent signal emitted from the samples was measured, The results of the STAT5 assay are shown in Tables 5 and 6. “Ave” indicates the average fluorescent signal, and “SEM” indicates the standard error of the mean.\nAntibodies SS3 and SS1 (hIgG2Δa) were tested using a STAT5 phosphorylation assay. For the STAT5 assay, full-length human GHR overexpressing HEK293 cells or full-length cyno GHR-overexpressing HEK293 cells were cultured, counted by automated cell counter, and seeded in warm freestyle media in 12-well plates (5×10^5 cells/well in 1 ml media). Cells were allowed to settle for 3 hours at 37° C. then treated with 2.5, 5, 50, or 500 nM of SS1 or SS3 in media. […] Cells were incubated with GH at 37° C. with gentle mixing for 10 minutes.\nReagents from Millipore™ MILLIPLEX® MAP Cell Signaling Buffer and Detection Kit (cat, #48-602) were used to lyse and treat the cell pellets. […]"}, "[3]": {"target": "T1, human GHR (Homo sapiens, UniProt P10912, I544L)", "T1 construct": "expressed in transfected cells; host or cells: HEK293", "T1 sequence (P10912 19-638 I544L)": "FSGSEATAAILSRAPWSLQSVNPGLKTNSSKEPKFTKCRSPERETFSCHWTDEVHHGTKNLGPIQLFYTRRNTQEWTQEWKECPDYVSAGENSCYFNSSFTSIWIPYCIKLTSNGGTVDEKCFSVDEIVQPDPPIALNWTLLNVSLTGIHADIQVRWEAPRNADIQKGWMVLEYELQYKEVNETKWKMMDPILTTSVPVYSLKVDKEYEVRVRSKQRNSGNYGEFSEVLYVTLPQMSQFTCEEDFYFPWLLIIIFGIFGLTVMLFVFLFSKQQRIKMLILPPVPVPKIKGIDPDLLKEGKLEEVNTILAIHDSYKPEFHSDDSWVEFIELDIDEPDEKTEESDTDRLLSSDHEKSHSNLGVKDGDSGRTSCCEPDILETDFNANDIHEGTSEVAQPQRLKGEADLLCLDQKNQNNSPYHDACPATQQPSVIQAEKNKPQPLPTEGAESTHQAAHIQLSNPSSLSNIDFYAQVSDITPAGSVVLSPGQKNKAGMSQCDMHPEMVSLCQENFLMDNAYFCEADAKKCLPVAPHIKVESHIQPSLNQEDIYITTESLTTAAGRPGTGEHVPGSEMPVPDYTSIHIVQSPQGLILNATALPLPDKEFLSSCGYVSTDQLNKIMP", "experiment": "STAT5 phosphorylation in vitro assay, human GHR-transfected HEK293 cells", "type": "cell-based", "conditions": "for fluorescent signal ave (phospho-STAT5): Table 7, human GHR-transfected cells", "method": "This Example illustrates the effect of GHR antibodies in an in vitro STAT5 phosphorylation assay. In this Example, the ability of GHR antibodies to block GHR downstream signaling was tested in vitro using human GHR overexpressing cells and cyno GHR overexpressing cells. […]\nAntibodies SS3 and SS1 (hIgG2Δa) were tested using a STAT5 phosphorylation assay. For the STAT5 assay, full-length human GHR overexpressing HEK293 cells or full-length cyno GHR-overexpressing HEK293 cells were cultured, counted by automated cell counter, and seeded in warm freestyle media in 12-well plates (5×10^5 cells/well in 1 ml media). Cells were allowed to settle for 3 hours at 37° C. then treated with 2.5, 5, 50, or 500 nM of SS1 or SS3 in media.\nMillipore™ lysis buffer with 1× protease inhibitor cocktail and sodium orthovanadate was added to each pellet at a volume of 100 ul/pellet Cells were vortexed and incubated for 15 minutes at room temp with occasional vortexing, Millipore™ Assay buffer 2 with 1× protease inhibitor cocktail and 1 mM sodium orthovanadate was then added to the lysates at 200 ul/well.\n25 ul/well of sample lysate was added to the wells and the beads and samples were incubated overnight at 4′C with shaking in the dark. […]\nThe plate was read using a Luminex 200 instrument and florescent signal emitted from the samples was measured."}}, "note": "Where a name gives a salt, the structure may show the parent alone. Marks after values point to notes of the source that are not given here.", "data": [{"molecule": "CCc1c2c(nc3ccc(OC(=O)N4CCC(N5CCCCC5)CC4)cc13)-c1cc3c(c(=O)n1C2)COC(=O)[C@]3(O)CC", "note": "[Irinotecan, Irinotecan hydrochloride]", "values": [{"measurement": "Tumor weight (in grams), mean", "setting": "[1]", "value": "1.2** g"}, {"measurement": "Tumor weight (in grams), mean", "setting": "[1]; listed as irinotecan", "value": 1.2, "unit": "g"}]}, {"molecule": "GH: growth hormone, added at 4.5 nM to stimulate STAT5 signaling in GHR-transfected cells [reference compound]", "values": [{"measurement": "fluorescent signal Ave (phospho-STAT5)", "setting": "[2]; Table 6, cyno GHR-transfected cells, 4.5 nM GH alone", "value": 562}, {"measurement": "fluorescent signal ave (phospho-STAT5)", "setting": "[2]; 4.5 nM GH alone", "value": 847}]}, {"molecule": "B1", "values": [{"measurement": "fluorescent signal ave (phospho-STAT5)", "setting": "[3]; 2.5 nM antibody + 4.5 nM GH", "value": 100}, {"measurement": "fluorescent signal ave (phospho-STAT5)", "setting": "[3]; 5 nM antibody + 4.5 nM GH", "value": 48}, {"measurement": "fluorescent signal ave (phospho-STAT5)", "setting": "[3]; 50 nM antibody + 4.5 nM GH", "value": 0}, {"measurement": "fluorescent signal ave (phospho-STAT5)", "setting": "[3]; 500 nM antibody + 4.5 nM GH", "value": 0}, {"measurement": "effect on GH-stimulated STAT5 signaling", "setting": "[3]; cells expressing human GHR, 4.5 nM GH", "value": "blocked STAT5 signaling in a dose-dependent manner"}, {"measurement": "fluorescent signal ave (phospho-STAT5)", "setting": "[2]; 2.5 nM antibody + 4.5 nM GH", "value": 621}, {"measurement": "fluorescent signal ave (phospho-STAT5)", "setting": "[2]; 5 nM antibody + 4.5 nM GH", "value": 518}, {"measurement": "fluorescent signal ave (phospho-STAT5)", "setting": "[2]; 50 nM antibody + 4.5 nM GH", "value": 50}, {"measurement": "fluorescent signal ave (phospho-STAT5)", "setting": "[2]; 500 nM antibody + 4.5 nM GH", "value": 8}, {"measurement": "effect on GH-stimulated STAT5 signaling", "setting": "[2]; cells expressing cyno GHR, 4.5 nM GH", "value": "blocked STAT5 signaling in a dose-dependent manner"}]}]}
